Laboratory results taken from patent US20170022269A1.

What was measured:
[1] = target: Aβ(20-42) globulomer (human); test: dot blot densitometry, antibody 0.2 µg/ml; column Aβ(20-42) globulomer (reference)
Aβ(1-42) fibrils (human) = Aβ(1-42) fibrils (human) (UniProt P05067); test: co-pelleting with Aβ(1-42) fibrils, SDS-PAGE, optical density of the heavy chain in pellet / (pellet + supernatant)
Sequence of Aβ(1-42) fibrils (human) (P05067 672-713): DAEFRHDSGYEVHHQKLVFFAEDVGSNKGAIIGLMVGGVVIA

Sequence of Aβ(20-42) globulomer (human) (peptide, as listed by the source): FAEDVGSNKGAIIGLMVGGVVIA

- relation between recognition of Aβ(20-42) globulomer and the respective Aβ form [1]: 1
- antibody bound to fibrils [%] (Aβ(1-42) fibrils (human)): 98%
Substance: commercially available antibody 6E10 (Signet, Cat. no. 9320)
